The values that follow come from PMC2775144.

For test [1], the target named is PqsD (Pseudomonas aeruginosa). Nature of the test: SEC-MALS.
For test [2], the target named is PqsD (Pseudomonas aeruginosa). The test can be described thus: AUC.

The stoichiometry N is a count of units in the complex or per binding partner.

For PqsD (enzyme), the stoichiometry N in test [1] and in test [2] was 2 each time.
